The results in this text go back to patent US20240228986A1, “ENGINEERED CELLS, ENZYMES, AND METHODS FOR PRODUCING CANNABINOIDS” (priority 2021, published 2024).

For this assay, the system named is olivetolic acid. Description: Fusions of different GPSs with MPT4, in vivo assay (Example 7). The format is cell-based, Yarrowia. Conditions: 1 mM olivetolic acid, 72 h quench; for CBGA / FCBGA: 2% glycerol, strain sCL-SE-0128; for CBGA/FCBGA: product ratio. The method, then:
As described below, plasmids pCL-SE-0337, 0406, 0452 and 0453 were transformed into strain sCL-SE-0128. Multiple colonies per transformation were precultured for 24 h in YNB containing glycerol (2%), casamino acids (0.5%), and MES (100 mM pH 6.5). Pre-culture was used to inoculate assay medium comprised of YNB containing glycerol (2%), casamino acids (0.5%), MES (100 mM pH 6.5), and olivetolic acid (1 mM). Cultures were quenched after 72 h total growth and assayed for CBGA and F-CBGA. Averages and standard deviations were calculated from replicates.
However, sCL-SE-0128 expresses HMGR and GPS1.1 to increase intracellular GPP levels for prenylation of OA to CBGA. The plasmids that were transformed contain a gene expressing a fusion between two different GPSs and a prenyl-transferase. The same linker is used for all constructs. […] Additionally, as illustrated by GPS2 (pCL-SE-0453), certain GPS-MPT combinations result in very high CBGA/ FCBGA ratios.
Overnight YPD (10 g/L yeast extract, 20 g/L peptone, 2% dextrose) cultures were inoculated from glycerol stocks of the appropriate strain and grown at 30° C. with 250 rpm shaking. Once cultures had reached an OD600 of 4-6, cultures were centrifuged at 500×g for 5 min, supernatants were discarded, and cell pellets were resuspended in equal volume of water. Resuspended cells were centrifuged at 500×g for 5 min, supernatants were discarded, and cells were resuspended in a volume (75 μL×OD×Vculture) of transformation cocktail (45% PEG-400, 0.1 M LiAc, 0.1 M DTT, and 25 ug/100 μL SS Salmon Sperm DNA). For each transformation, >1 μg of plasmid DNA was added to 55 μL cells/transformation cocktail and vortexed for 2 s. Transformations were incubated at 39° C. for 1 h with 250 rpm shaking. Transformations were resuspended in 750 μL YPD with 1 M sorbitol and recovered at 30° C. overnight with 250 rpm shaking. The next day, transformations were centrifuged at 500×g for 5 min, supernatants were discarded, and cell pellets were resuspended in 750 YPD. Resuspended transformations were plated on YPD with appropriate selection or YNBD (6.71 g/L yeast nitrogen base+nitrogen, 0.5% casamino acids, 2% dextrose) agar plates and grown at 30° C. for 2 days. Individual colonies were patched onto YPD plates with appropriate selection or YNBD plates and grown at 30° C. overnight. Patches were used to inoculate 0.5 mL YPD with appropriate selection or YNBD precultures in 96 w blocks and grown at 30° C. for 24-48 h with 1000 rpm shaking. For assays, 0.5 mL YPD with appropriate selection or YNBD cultures containing substrate were inoculated with 2 μL from precultures and grown at 30° C. for 2-4 days with 1000 rpm shaking with 2% glucose added every 24 h. Assay cultures were quenched by addition of 0.5 mL ethanol with 0.2% formic acid and 0.5 mg/mL pentyl-benzoic acid. Precipitates were pelleted by centrifuging at 4600×g for 10 min and then 200 μL was transferred to fresh plates, sealed, and analyzed via HPLC.
All samples were quenched with equal volume of EtOH containing 0.2 mg/mL internal standard (3,5-Diisopropyl-2-hydroxybenzoic acid CAS #2215-21-6) centrifuged, and clarified solutions were analyzed by HPLC-MS
• Column: 2.1×50 mm COSMOCORE PBr (Nacalai USA, Inc.) • Mobile Phase: A; 0.1% formic acid in water, B; 0.1% formic acid in acetonitrile • Flow: 0.45 mL/min • Temp: % 50 Celsius • Gradient: 20%B at 0 min, 70%B at 2.3 min, 89% B at 4.2 min, 20% B at 4.3 min, 20%B at 6 min

B1: GPS3-F11-MPT4: fusion protein, SEQ ID NO: 20 (protein)
chain: MQLLNPPQKGKKAVEFDFNKYMDSKAMTVNEALNKAIPLRYPQKIYESMRYSLLAGGKRVRPVLCIAACELVGGTEELAIPTACAIEMIHTMSLMHDDLPCIDNDDLRRGKPTNHKIFGEDTAVTAGNALHSYAFEHIAVSTSKTVGADRILRMVSELGRATGSEGVMGGQMVDIASEGDPSIDLQTLEWIHIHKTAMLLECSVVCGAIIGGASEIVIERARRYARCVGLLFQVVDDILDVTKSSDELGKTAGKDLISDKATYPKLMGLEKAKEFSDELLNRAKGELSCFDPVKAAPLLGLADYVAFRQNGGAEAAAKEAAAKAGGSGGGSGGGGSGGSGGGGSGGGGSMSDNSIATKILNFGHTCWKLQRPYVVKGMISIACGLFGRELFNNRHLFSWGLMWKAFFALVPILSFNFFAAIMNQIYDVDIDRINKPDLPLVSGEMSIETAWILSIIVALTGLIVTIKLKSAPLFVFIYIFGIFAGFAYSVPPIRWKQYPFTNFLITISSHVGLAFTSYSATTSALGLPFVWRPAFSFIIAFMTVMGMTIAFAKDISDIEGDAKYGVSTVATKLGARNMTFVVSGVLLLNYLVSISIGIIWPQVFKSNIMILSHAILAFCLIFQTRELALANYASAPSRQFFEFIWLLYYAEYFVYVFI
modifications: GPS3-F11-MPT4, geranyl diphosphate synthase, membrane-bound prenyltransferase fusion protein
For the molecule B1, the CBGA is 255 ± 22 µM, the FCBGA stood at 41 ± 3 µM and the CBGA/FCBGA is on record as 6.2.

B2: GPS2-F11-MPT4: fusion protein, SEQ ID NO: 21 (protein)
chain: MKDVSLSSFDAHDLDLDKFPEVVRDRLTQFLDAQELTIADIGAPVTDAVAHLRSFVLNGGKRIRPLYAWAGFLAAQGHKNSSEKLESVLDAAASLEFIQACALIHDDIIDSSDTRRGAPTVHRAVEADHRANNFEGDPEHFGVSVSILAGDMALVWAEDMLQDSGLSAEALARTRDAWRGMRTEVIGGQLLDIYLESHANESVELADSVNRFKTAAYTIARPLHLGASIAGGSPQLIDALLHYGHDIGIAFQLRDDLLGVFGDPAITGKPAGDDIREGKRTVLLALALQRADKQSPEAATAIRAGVGKVTSPEDIAVITEHIRATGAEEEVEQRISQLTESGLAHLDDVDIPDEVRAQLRALAIRSTERRMGGAEAAAKEAAAKAGGSGGGSGGGGSGGSGGGGSGGGGSMSDNSIATKILNFGHTCWKLQRPYVVKGMISIACGLFGRELFNNRHLFSWGLMWKAFFALVPILSFNFFAAIMNQIYDVDIDRINKPDLPLVSGEMSIETAWILSIIVALTGLIVTIKLKSAPLFVFIYIFGIFAGFAYSVPPIRWKQYPFTNFLITISSHVGLAFTSYSATTSALGLPFVWRPAFSFIIAFMTVMGMTIAFAKDISDIEGDAKYGVSTVATKLGARNMTFVVSGVLLLNYLVSISIGIIWPQVFKSNIMILSHAILAFCLIFQTRELALANYASAPSRQFFEFIWLLYYAEYFVYVFI
modifications: GPS2-F11-MPT4, geranyl diphosphate synthase, membrane-bound prenyltransferase fusion protein
Turning to B2, the CBGA is 282 ± 69 µM, the FCBGA stood at 11 ± 2 µM and the CBGA/FCBGA amounted to 26.8.
